Test system: RED STAR yeast
Assay: Conventional simultaneous saccharification fermentation (SSF) of liquefied corn mash, ethanol yield by weight loss and HPLC
Format: cell-based
Settings: conventional SSF, 70 hours
Method: Liquefied corn mash was used to evaluate the effect of adding salicylic acid (SA) to a known enzyme dosage of
The performance of these enzymes was compared to controls without salicylic acid addition. The experimental set-up used is described in table below.
5.5 g of RED STAR™ yeast was rehydrated in 100 mL distilled water and incubated at 32° C. for 30 minutes prior to the beginning of fermentation. Approximately 50 million cells/g DS of yeast were added to each of the fermentations.
The corn mash was thawed to room temperature. Urea and Penicillin were added to a final concentration of […] and 3 mg/L respectively. Small-scale (˜4 g) fermentations were carried out in 15 mL polypropylene tubes with five replicates for each experimental condition. The tubes were prepared by drilling a 1/32 inch (1.5 mm) hole and the empty tubes were then weighed before liquefied corn mash was added. The tubes were weighed again after mash was added to determine the exact weight of mash in each tube. This weight was used to calculate the enzyme dosage necessary as follows:
Enzyme was added according to dosage described in table above and 100 μl of rehydrated yeast were added to each tube to begin fermentation. Fermentation progress was followed by weighing the tubes over time for approximately 70 hours. Tubes were vortexed briefly before each weighing. […]

B1: Aspergillus niger GA: Aspergillus niger G1 glucoamylase disclosed in Boel et al., 1984, EMBO J. 3 (5): 1097-1102 (protein, UniProt P69328 25-640, looked up)
Glucoamylase: ATLDSWLSNEATVARTAILNNIGADGAWVSGADSGIVVASPSTDNPDYFYTWTRDSGLVLKTLVDLFRNGDTSLLSTIENYISAQAIVQGISNPSGDLSSGAGLGEPKFNVDETAYTGSWGRPQRDGPALRATAMIGFGQWLLDNGYTSTATDIVWPLVRNDLSYVAQYWNQTGYDLWEEVNGSSFFTIAVQHRALVEGSAFATAVGSSCSWCDSQAPEILCYLQSFWTGSFILANFDSSRSGKDANTLLGSIHTFDPEAACDDSTFQPCSPRALANHKEVVDSFRSIYTLNDGLSDSEAVAVGRYPEDTYYNGNPWFLCTLAAAEQLYDALYQWDKQGSLEVTDVSLDFFKALYSDAATGTYSSSSSTYSSIVDAVKTFADGFVSIVETHAASNGSMSEQYDKSDGEQLSARDLTWSYAALLTANNRRNSVVPASWGETSASSVPGTCAATSAIGTYSSVTVTSWPSIVATGGTTTTATPTGSGSVTSTSKTTATASKTSTSTSSTSCTTPTAVAVTFDLTATTTYGENIYLVGSISQLGDWETSDGIALSADKYTSSDPLWYVTVTLPAGESFEYKFIRIESDDSVEWESDPNREYTVPQACGTSTATVTDTWR
Q: For B1, which “Ethanol yield after 70 hours fermentation determined by HPLC, With SA” value (SA dose 5.0 mM/gDS) is on record?
A: The value was 117.67.

Q: And the “Ethanol yield after 70 hours fermentation determined by HPLC, without SA” value (no SA)?
A: Its value is 113.74.

Reference: patent publication US20080145903A1, “PROCESSES OF PRODUCING FERMENTATION PRODUCTS” (priority 2006, published 2008)
